From US20130336980A1 (Janssen / Centocor, published 2013)
Where a chain is given by its changes, count along the chain named. Like-named read-outs stand apart in the source and are kept apart here.

Legend:
18AKF20-->TEG = experiment: SPR, ProteOn XPR36, 25 C: mAb captured on anti-Fc surface, ST2L-D1D2 (HH-ST2L) wild type or variant injected, 1:1 model
[1] = target: T1, human ST2L extracellular domain with C-terminal His6 tag (human, UniProt Q01638 19-328); experiment: SPR, captured mAb, ST2L-ECD analyte
T1 construct: also called huST2L-ECD; ST2L-ECD
T1 sequence: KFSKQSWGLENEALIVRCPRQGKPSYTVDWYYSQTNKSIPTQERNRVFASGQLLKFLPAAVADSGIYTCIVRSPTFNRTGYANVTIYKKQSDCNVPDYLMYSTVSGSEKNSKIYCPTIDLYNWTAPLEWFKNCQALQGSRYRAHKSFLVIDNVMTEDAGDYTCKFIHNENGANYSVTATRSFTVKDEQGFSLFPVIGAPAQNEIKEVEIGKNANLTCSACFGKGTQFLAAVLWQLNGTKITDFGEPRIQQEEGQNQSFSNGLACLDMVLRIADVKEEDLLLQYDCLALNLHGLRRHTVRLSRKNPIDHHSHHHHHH

[2] = target: T2, cynomolgus ST2L extracellular domain with C-terminal His6 tag (Macaca fascicularis (cyno), UniProt Q01638 19-321 (human entry)); experiment: SPR, captured mAb, ST2L-ECD analyte
T2 construct: also called cynoST2L-ECD; cyno ST2L
T2 chain: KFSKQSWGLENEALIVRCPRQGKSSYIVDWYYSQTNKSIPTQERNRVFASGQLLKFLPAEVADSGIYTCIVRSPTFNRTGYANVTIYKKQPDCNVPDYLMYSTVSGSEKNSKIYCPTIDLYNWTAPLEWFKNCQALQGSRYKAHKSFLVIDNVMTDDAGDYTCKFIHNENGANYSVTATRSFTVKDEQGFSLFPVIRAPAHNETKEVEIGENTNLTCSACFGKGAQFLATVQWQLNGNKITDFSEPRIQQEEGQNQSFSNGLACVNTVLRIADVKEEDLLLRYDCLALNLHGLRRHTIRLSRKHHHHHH

[3] = target: T1, human ST2L extracellular domain with …; experiment: RLB ELISA, inhibition of biotin-IL-33 binding to coated huST2L-ECD
[4] = target: T1, human ST2L extracellular domain with …; experiment: SPR, captured mAb, ST2L-ECD analyte; remark: listed apart in the source
Protocol: (§1) The interactions of anti-ST2L antibodies with His₆-tagged human ST2L-ECD and His₆-tagged cyno ST2L-ECD were studied by ProteOn using a ProteOn XPR36 at 25° C. A biosensor surface was prepared by coupling goat anti-human IgG Fcγ fragment specific antibody (Ab) to the surface of a GLC sensor chip using the manufacturer instructions for amine-coupling chemistry. The coupling buffer was 10 mM sodium acetate, pH 4.5. The goat anti-human IgG Fcγ (about 4500 response units) was immobilized in the horizontal orientation. The anti-ST2L antibodies were provided purified, or in crude supernatants. In either case these antibodies were diluted in PRB (PBS pH 7.4, supplemented with, 3 mM EDTA, and 0.005% Tween 20) to a concentration of about 0.5 μg/mL. The antibodies were captured (60-130 RU) in the vertical orientation onto the anti-human Fcγ antibody-modified GLC chip. Capture of anti-ST2L mAbs was followed by injection of huST2L ECD in solution (0.024 to 15 nM in 5-fold dilutions) or cynoST2L ECD in solution (0.020-5 nM in 4-fold dilutions) in the horizontal orientation. The association was monitored for 4 minutes in all experiments (200 μL injected at 50 μL/min). The dissociation was monitored for 30 minutes. Regeneration of the sensor surface was obtained with three 15 sec pulses of 10 mM glycine pH 1.5. The data were fit using the ProteOn software and using a 1:1 binding model with mass transfer.

[5] = target: T2, cynomolgus ST2L extracellular domain …; experiment: SPR, captured mAb, ST2L-ECD analyte
Protocol: as §1

human ST2L on cells = target: T3, human ST2L on cells (human, UniProt Q01638 19-556); experiment: cell-based or functional assay
T3 sequence: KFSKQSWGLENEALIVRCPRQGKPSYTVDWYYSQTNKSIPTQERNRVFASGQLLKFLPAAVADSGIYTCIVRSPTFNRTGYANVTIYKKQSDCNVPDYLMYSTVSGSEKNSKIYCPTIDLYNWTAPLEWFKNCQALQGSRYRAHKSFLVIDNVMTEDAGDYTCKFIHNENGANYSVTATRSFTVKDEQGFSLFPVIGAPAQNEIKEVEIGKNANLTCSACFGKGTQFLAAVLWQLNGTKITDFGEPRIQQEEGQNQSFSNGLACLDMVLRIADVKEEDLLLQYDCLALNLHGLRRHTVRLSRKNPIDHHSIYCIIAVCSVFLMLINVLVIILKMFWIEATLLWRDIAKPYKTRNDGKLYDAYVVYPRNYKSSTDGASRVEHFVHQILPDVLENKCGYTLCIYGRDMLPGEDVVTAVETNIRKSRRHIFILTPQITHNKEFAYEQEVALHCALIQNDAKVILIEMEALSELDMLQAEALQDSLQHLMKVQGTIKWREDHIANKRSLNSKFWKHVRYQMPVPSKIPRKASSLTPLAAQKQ

[6] = target: T1, human ST2L extracellular domain with …; experiment: MSD electrochemiluminescence competition assay on plate-coated ST2L-ECD; unlabeled antibody titrated against 30 nM sulfo-tag labeled C2244 Fab
Protocol: Competition binding assays were performed to evaluate different binding epitope groups for anti-ST2L mAbs. 5 μl (10 μg/ml) of ST2L-ECD protein was coated on MSD HighBind plate (Meso Scale Discovery, Gaithersburg, Md.) per well for 2 hr at room temperature. One-hundred and fifty microliters of 5% MSD Blocker A buffer (Meso Scale Discovery, Gaithersburg, Md.) was added to each well and incubated for 2 hr at room temperature. Plates were washed three times with 0.1 M HEPES buffer, pH 7.4, followed by the addition of the mixture of the MSD fluorescence dye (sulfo tag, NHS ester) labeled individual anti-ST2L antibody with different competitors. Labeled antibody, 10 or 30 nM, was incubated with increasing concentrations of competitor antibodies, from 1 nM to 2 or 5 μM, and then added to the designated wells in a volume of 25 μL mixture. After 2-hour incubation with gentle shaking at room temperature, plates were washed 3 times with 0.1M HEPES buffer (pH 7.4). MSD Read Buffer T was diluted with distilled water (4-fold) and dispensed at a volume of 150 μL/well and analyzed with a SECTOR Imager 6000.

B1: STLM208 (antibody, V domains shown)
VH: EVQLLESGGGLVQPGGSLRLSCAASGFTFSIYDMIWVRQAPGKGLEWVSSIRGEGGGTYYADSVKGRFTISRDNSKNTLYLQMNSLRAEDTAVYYCARDPWSTEGSFFVLDYWGQGTLVTVSS
VL: EIVLTQSPATLSLSPGERATLSCRASQSVDDDLAWYQQKPGQAPRLLIYDASNRATGIPARFSGSGSGTDFTLTISSLEPEDFAVYYCQQYITAPLTFGQGTKVEIK
With B1 the Kd (18AKF20-->TEG) was 19.3 pM, the koff (18AKF20-->TEG) was 0.000229 s⁻¹ and the kon (18AKF20-->TEG) was 1.3e+07 M⁻¹ s⁻¹.

B2: ST2M50 (antibody, V domains shown)
VH: EVQLVQSGAEVKKPGESLKISCKGSGYSFTSYWIGWVRQMPGKGLEWMGIIYPGDSYTRYSPSFQGQVTISADKSISTAYLQWSSLKASDTAMYYCARLSGRFDYWGQGTLVTVSS
VL: B1 VL with D30S, D31N, D32A, D50F, Y91F, I92F, T93N, A94W, L96I
B2 was tested, and the Kd [1] was 45 pM, the koff [1] was 5.1e-05 s⁻¹ and the kon [1] was 1.15e+06 M⁻¹ s⁻¹. It also gave a Kd [2] of 124 pM, a koff [2] of 0.00249 s⁻¹ and a kon [2] of 2.01e+07 M⁻¹ s⁻¹.

B3: STLM206 (antibody, V domains shown)
VH: B1 VH with S50T, G57S
VL: B1 VL
notes: IgG; VH3-23 / Vk-L6 frameworks
Work on B3 yielded an IC50 [3] of 0.4 µg/mL, a Kd [4] of 25 pM and a koff [4] of 0.00016 s⁻¹. For the same binder, the kon [4] was 6.39e+06 M⁻¹ s⁻¹, the Kd [5] was 6 pM and the koff [5] was 0.000583 s⁻¹. The kon [5] was 9.4e+07 M⁻¹ s⁻¹ and the “RGA IC50” value (human ST2L on cells) was 0.67 µg/mL.

B4: STLM15 (antibody, human IgG2, V domains shown)
VH: EVQLQESGPGLVKPSQSLSLTCTVTGFSITSDYAWNWIRQFPGSKLEWMGFISYSGDTSFNPSLKSRISVTRDTSKNQFFLQLNSVTTEDTATYYCASYDGYSFDYWGQGTTLTVSS
VL: DIVLTQSPASLAISLGQRATISCRASKSVSTSGSSYMFWYQQKPGQPPKLLIYLASNLESGVPARFSGSGSGTDFTLNIHPVEEEDAAAYYCQHSREIPYTFGGGTKLEIK
notes: Mouse hybridoma C2244 V regions cloned into human IgG2 background = STLM15; also called C2244; C2244/STLM15
In the case of B4, the “IC50 (read off the curve)” value [6] is reported as ~100000 pM.
